Results: the supplement of paper PMC11908140

B1: library; numbered along this chain (parent)
chain: MRKPRAAVGSGHRKQAASQEGRQKHAKNNSQAKPSACDGLARQPEEVVLQASVSSYHLFRDVAEVTAFRGSLLSWYDQEKRDLPWRRRAEDEMDLDRRAYAVWVSEVMLQQTQVATVINYYTGWMQKWPTLQDLASASLEEVNQLWAGLGYYSRGRRLQEGARKVVEELGGHMPRTAETLQQLLPGVGRYTAGAIASIAFGQATGVVDGNVARVLCRVRAIGADPSSTLVSQQLWGLAQQLVDPARPGDFNQAAMELGATVCTPQRPLCSQCPVESLCRARQRVEQEQLLASGSLSGSPDVEECAPNTGQCHLCLPPSEPWDQTLGVVNFPRKASRKPPREESSATCVLEQPGALGAQILLVQRPNSGLLAGLWEFPSVTWEPSEQLQRKALLQELQRWAGPLPATHLRHLGEVVHTFSHIKLTYQVYGLALEGQTPVTTVPPGARWLTQEEFHTAAVSTAMKKVFRVYQGQQPGTCMGSKRSQVSSPCSRKKPRMGQQVLDNFFRSHISTDAHSLNSAAQ

Variants of: B1
Experiment: 8OG:A repair function score (normalized; synonymous = 0, nonsense = -1) (normalized log-likelihood score); higher = more repair activity (WT-like)
Settings: with 8OG:A DNA repair reporter (GFP) in HEK-293 MUTYH KO cells
Description: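 Saturation mutagenesis (NNN codon scan) of the MUTYH cDNA (521-aa nuclear isoform NM_001048174.1 / NP_001041639), stably expressed under doxycycline induction in HEK-293 MUTYH knockout cells. Cells were co-transfected with an 8OG:A-bearing GFP repair reporter plus mCherry and sorted 72 h later into GFP+ and GFP− bins, three replicates per tile. The Rosace log2 enrichment (GFP+ vs GFP−) was converted per tile to a normalized function score with synonymous variants centered at 0 and nonsense variants (codons 1-471) at -1; low-abundance variants were removed.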

| Variant | 8OG:A repair function score |
| --- | --- |
| MRKPRAAVGSGHRKQAASQEGRQKHAKNNSQAKPSACDGLARQPEEVVLQASVSSYHLFRDVAEVTAFRGSLLSWYDQEKRDLPWRRRAEDEMDLDRRAYAVWVSEVMLQQTQVATVINYYTGWMQKWPTLQDLASASLEEVNQLWAGLGYYSRGRRLQEGARKVVEELGGHMPRTAETLQQLLPGVGRYTAGAIASIAFGQATGVVDGNVARVLCRVRAIGADPSSTLVSQQLWGLAQQLVDPARPGDFNQAAMELGATVCTPQRPLCSQCPVESLCRARQRVEQEQLLASGSLSGSPDVEEPAPNTGQCHLCLPPSEPWDQTLGVVNFPRKASRKPPREESSATCVLEQPGALGAQILLVQRPNSGLLAGLWEFPSVTWEPSEQLQRKALLQELQRWAGPLPATHLRHLGEVVHTFSHIKLTYQVYGLALEGQTPVTTVPPGARWLTQEEFHTAAVSTAMKKVFRVYQGQQPGTCMGSKRSQVSSPCSRKKPRMGQQVLDNFFRSHISTDAHSLNSAAQ [C304P] | -0.398 |
| MRKPRAAVGSGHRKQAASQEGRQKHAKNNSQAKPSACDGLARQPEEVVLQASVSSYHLFRDVAEVTAFRGSLLSWYDQEKRDLPWRRRAEDEMDLDRRAYAVWVSEVMLQQTQVATVINYYTGWMQKWPTLQDLASASLEEVNQLWAGLGYYSRGRRLQEGARKVVEELGGHMPRTAETLQQLLPGVGRYTAGAIASIAFGQATGVVDGNVARVLCRVRAIGCDPSSTLVSQQLWGLAQQLVDPARPGDFNQAAMELGATVCTPQRPLCSQCPVESLCRARQRVEQEQLLASGSLSGSPDVEECAPNTGQCHLCLPPSEPWDQTLGVVNFPRKASRKPPREESSATCVLEQPGALGAQILLVQRPNSGLLAGLWEFPSVTWEPSEQLQRKALLQELQRWAGPLPATHLRHLGEVVHTFSHIKLTYQVYGLALEGQTPVTTVPPGARWLTQEEFHTAAVSTAMKKVFRVYQGQQPGTCMGSKRSQVSSPCSRKKPRMGQQVLDNFFRSHISTDAHSLNSAAQ [A223C] | -0.145 |
| MRKPRAAVGSGHRKQAASQEGRQKHAKNNSQAKPSACDGLARQPEEVVLQASVSSYHLFRDVAEVTAFRGSLLSWYDQEKRDLPWRRRAEDEMDLDRRAYAVWVSEVMLQQTQVATVINYYTGWMQKWPTLQDLASASLEEVNQLWAGLGYYSRGRRLQEGARKVVEELGGHMPRTAETLQQLLPGVGRYTAGAIASIAFGQATGVVDGNVARVLCRVRAIGADPSSTLVSQQLWGLAQQLVDPARPGDFNQAAMELGATVCTPQRPLCSQCPVESLCRARQRVEQEQLLASGSLSGSPDVEECAPNTGQCHLCLPPSEPWDQTLGVVNFPRKASRKPPREESCATCVLEQPGALGAQILLVQRPNSGLLAGLWEFPSVTWEPSEQLQRKALLQELQRWAGPLPATHLRHLGEVVHTFSHIKLTYQVYGLALEGQTPVTTVPPGARWLTQEEFHTAAVSTAMKKVFRVYQGQQPGTCMGSKRSQVSSPCSRKKPRMGQQVLDNFFRSHISTDAHSLNSAAQ [S344C] | 0.0475 |
| MRKPRAAVGSGHRKQAASQEGRQKHAKNNSQAKPSACDGLARQPEEVVLQASVSSYHLFRDVAEVTAFRGSLLSWYDQEKRDLPWRRRAEDEMDLDRRAYAVWVSEVMLQQTQVATVINYYTGWMQKWPTLQDLASASLEEVNQLWAGLGYYSRGRRLQEGARKVVEELGGHMPRTAETLQQLLPGVGRYTAGAIASIAFGQATGVVDGNVARVLCRVRAIGADPSSTLVSQQLWGLAQQLVDPARPGDFNQAAMELGATVCTPQRPLCSQCPVESLCRARQRVEQEQLLASGSLSGSPDVEECAPNTGQCHLCLPPSEPWDQTLGVVNFPRKASRKPPREESSATCVLEQPGALGAQILLVQRPNSGLLAGLWEFPSVTWEPSEELQRKALLQELQRWAGPLPATHLRHLGEVVHTFSHIKLTYQVYGLALEGQTPVTTVPPGARWLTQEEFHTAAVSTAMKKVFRVYQGQQPGTCMGSKRSQVSSPCSRKKPRMGQQVLDNFFRSHISTDAHSLNSAAQ [Q386E] | -0.0345 |
| MRKPRAAVGSGHRKQAASQEGRQKHAKNNSQAKPSACDGLARQPEEVVLQASVSSYHLFRDVAEVTAFRGSLLSWYDQEKRDLPWRRRAEDEMDLDRRAYAVWVSEVMLQQTQVATVINYYTGWMQKWPTLQDLASASLEEVNQLWAGLGYYSRGRRLQEGARKVVEELGGHMPRTAETLQQLLPGVGRYTAGAIASIAFGQTTGVVDGNVARVLCRVRAIGADPSSTLVSQQLWGLAQQLVDPARPGDFNQAAMELGATVCTPQRPLCSQCPVESLCRARQRVEQEQLLASGSLSGSPDVEECAPNTGQCHLCLPPSEPWDQTLGVVNFPRKASRKPPREESSATCVLEQPGALGAQILLVQRPNSGLLAGLWEFPSVTWEPSEQLQRKALLQELQRWAGPLPATHLRHLGEVVHTFSHIKLTYQVYGLALEGQTPVTTVPPGARWLTQEEFHTAAVSTAMKKVFRVYQGQQPGTCMGSKRSQVSSPCSRKKPRMGQQVLDNFFRSHISTDAHSLNSAAQ [A203T] | 0.03 |
| MRKPRAAVGSGHRKQAASQEGRQKHAKNNSQAKPSACDGLARQPEEVVLQASVSSYHLFRDVAEVTAFRGSLLSWYDQEKRDLPWRRRAEDEMDLDRRAYAVWVSEVMLQQTQVATVINYYTGWMQKWPTLQDLASASLEEVNQLWAGLGYYSRGRRLQEGARKVVEELGGHMPRTAETLQQLLPGVGRYTAGAIASIAFGQATGVVDGNVARVLCRVRAIGADPSSTLVSQQLWGLAQQLVDPARPGDFNQAAMELGATVCTPQRPLCSQCPVESLCRARQRVEQEQLLASGSLSGSPDVEECAPNTGQCHLCLPPSEPWDQTLGVVNFPRKASRKPPREESSATCVLEQPGALGAQILLVQRPNSGLLAGLWEFPSVTWEPSEQLQRKALLQELQRWAGPLPATHLRMLGEVVHTFSHIKLTYQVYGLALEGQTPVTTVPPGARWLTQEEFHTAAVSTAMKKVFRVYQGQQPGTCMGSKRSQVSSPCSRKKPRMGQQVLDNFFRSHISTDAHSLNSAAQ [H410M] | 0.0995 |
